Data from patent US20230303690A1 (published 2023).
Read-outs that look alike come from different tables or passages of the source. Blank lines part the entries; values can stand above or below the binder they belong to.

Columns and labels:
[1] = target: T1, LAG3 Protein, Human, Recombinant (His Tag) (Sino Biological Catalog No. 16498-H08H) (human, UniProt P18627 23-450); test: ELISA, coated hLAG3-His
T1 construct: Bought protein; also called hLAG3-His; LAG3-His; not shown: His tag
T1 sequence (looked up): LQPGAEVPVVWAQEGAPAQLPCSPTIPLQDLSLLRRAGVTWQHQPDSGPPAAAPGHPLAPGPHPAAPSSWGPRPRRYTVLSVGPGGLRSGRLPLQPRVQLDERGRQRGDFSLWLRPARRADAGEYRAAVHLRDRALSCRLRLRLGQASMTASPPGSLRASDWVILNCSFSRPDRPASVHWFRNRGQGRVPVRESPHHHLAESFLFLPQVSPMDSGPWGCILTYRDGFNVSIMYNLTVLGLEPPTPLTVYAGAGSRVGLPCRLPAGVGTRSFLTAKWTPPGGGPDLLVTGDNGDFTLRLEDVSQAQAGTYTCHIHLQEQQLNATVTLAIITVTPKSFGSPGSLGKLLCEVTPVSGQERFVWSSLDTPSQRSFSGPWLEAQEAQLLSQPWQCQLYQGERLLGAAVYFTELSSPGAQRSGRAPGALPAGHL
Experimental: (§1) Plates were coated with 100 µL per well of Coating Solution, and then covered, and incubated overnight (12-18 hours) at 2-8° C. The wells were aspirated and washed 1 time with >200 µL of Wash buffer per well, inverted and tapped on absorbent paper to remove excess liquid. The plates were blocked with 200 µL per well with Blocking buffer (1×PBS+4% milk) for 1 hour at room temperature, aspirated, inverted, and tapped on absorbent paper to remove excess liquid. Standards and sample dilutions were prepared in Blocking buffer. 100 µL of standards (in duplicate) and samples were pipetted into designated wells. After incubation for 1 hour at room temperature with gentle continual shaking (~500 rpm), the wells were aspirate and washed 3 times with >200 µL of Wash buffer per well, inverted and tapped on absorbent paper to remove excess liquid.
(§2) The primary antibody solution was diluted with Blocking buffer. See Table 14 for recommended primary antibody dilution. 100 µL of the primary antibody solution was added into each well and incubated for 2 hours at room temperature with gentle continual shaking (~500 rpm). The wells were aspirated and washed 3 times with >200 µL of Wash buffer per well, inverted and tapped on absorbent paper to remove excess liquid. The working solution of secondary antibody was made with Blocking buffer by diluting the secondary antibody by 2,500 times. 100 µL of secondary antibody working solution was added into each well and incubated for 30 minutes at room temperature. The wells were aspirated and washed 5 times with >200 µL of Wash buffer per well, inverted and tapped on absorbent paper to remove excess liquid. 100 µL of TMB substrate solution (Biopanda, TMB-S-004) was added to each well and incubated for 30 minutes at room temperature. 100 µL of Stop solution (Solarbio, C1058) was added to each well.

[2] = target: T1, LAG3 Protein, Human, Recombinant (His …); test: ELISA, coated hLAG3-His; remark: listed apart in the source
Experimental: as §1
as §2, with “well. Absorbance at 450 nm was measured within 30 minutes of adding Stop solution. Results were calculated using a log-log or 4-parameter curve fit.” for “well.”

[3] = target: T2, human LAG3 expressed on cells (human, UniProt P18627 23-525); test: cell-based or functional assay
T2 sequence (looked up): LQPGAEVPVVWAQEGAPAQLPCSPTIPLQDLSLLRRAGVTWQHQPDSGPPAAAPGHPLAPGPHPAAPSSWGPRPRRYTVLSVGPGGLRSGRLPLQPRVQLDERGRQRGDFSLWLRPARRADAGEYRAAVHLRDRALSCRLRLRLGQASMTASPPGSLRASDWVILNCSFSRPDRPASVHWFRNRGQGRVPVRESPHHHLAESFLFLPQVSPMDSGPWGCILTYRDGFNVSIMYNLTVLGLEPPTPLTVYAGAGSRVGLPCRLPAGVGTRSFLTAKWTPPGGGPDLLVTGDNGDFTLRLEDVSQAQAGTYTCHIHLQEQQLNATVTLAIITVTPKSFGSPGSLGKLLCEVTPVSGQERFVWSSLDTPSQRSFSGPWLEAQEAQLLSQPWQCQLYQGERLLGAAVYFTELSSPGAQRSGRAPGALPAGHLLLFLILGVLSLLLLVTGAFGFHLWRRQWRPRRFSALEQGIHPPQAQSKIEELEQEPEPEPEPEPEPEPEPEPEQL

EC50 [1]: 2.17 nM
B1: sdAb No. 17 (VHH)
VHH: QLQLVESGGGLVQPGGSLRLSCAASGLTLDGYAIGWFRQAPGKEREGLACISGSDGSTHYLDSVKGRFTISRDNGKNTMALQMNSLQFGDTAIYYCAARRGSCSGSWTYWGQGTQVTVSS
notes: Fc of the tested form not described; also called sdAb 17; not shown: Fc part implied by anti-human Fc capture and anti-human IgG1 Fc detection

EC50 [2]: 4.7 nM
OD450 at 0.061 nM [2]: 0.037
OD450 at 0.1829 nM [2]: 0.042
OD450 at 0.5487 nM [2]: 0.059
OD450 at 1.6461 nM [2]: 0.257
OD450 at 4.9383 nM [2]: 1.04
OD450 at 14.815 nM [2]: 1.57
OD450 at 44.445 nM [2]: 1.77
OD450 at 133.335 nM [2]: 1.95
IL-2, % of BMS, at 0.005080526 ug/mL [3]: 5.57%
IL-2, % of BMS, at 0.015241579 ug/mL [3]: 13.4%
IL-2, % of BMS, at 0.045724737 ug/mL [3]: 12.1%
IL-2, % of BMS, at 0.137174211 ug/mL [3]: 18%
IL-2, % of BMS, at 0.411522634 ug/mL [3]: 27.3%
IL-2, % of BMS, at 1.234567901 ug/mL [3]: 36.5%
IL-2, % of BMS, at 3.703703704 ug/mL [3]: 43.4%
IL-2, % of BMS, at 11.11111111 ug/mL [3]: 50%
IL-2, % of BMS, at 33.33333333 ug/mL [3]: 52.9%
IL-2, % of BMS, at 100 ug/mL [3]: 52.8%
EC50 [1]: 3.14 nM
OD450 at 0.004572 ug/ml [1]: 0.039
OD450 at 0.013717 ug/ml [1]: 0.042
OD450 at 0.041152 ug/ml [1]: 0.063
OD450 at 0.123457 ug/ml [1]: 0.331
OD450 at 0.37037 ug/ml [1]: 1.5
OD450 at 1.111111 ug/ml [1]: 1.84
OD450 at 3.333333 ug/ml [1]: 1.77
OD450 at 10 ug/ml [1]: 2.15
B2: sdAb No. 27 (VHH)
VHH: QVQLVESGGGLVQPGGSLRLSCAASGFTLDYYAIGWFRQAPGKEREGVSCIRSSDGSTYYADSVKGRFTISSDNTKNTVYLQMNSLKPEDTAVYYCATDRYSDCRGPYENWGQGTQVTVSS
notes: Fc of the tested form not described; also called sdAb 27; not shown: Fc part implied by anti-human Fc capture and anti-human IgG Fc detection

EC50 [2]: 3.45 nM
OD450 at 0.061 nM [2]: 0.037
OD450 at 0.1829 nM [2]: 0.042
OD450 at 0.5487 nM [2]: 0.06
OD450 at 1.6461 nM [2]: 0.233
OD450 at 4.9383 nM [2]: 0.643
OD450 at 14.815 nM [2]: 0.85
OD450 at 44.445 nM [2]: 0.882
OD450 at 133.335 nM [2]: 1.02
IL-2, % of BMS, at 0.005080526 ug/mL [3]: 3.24%
IL-2, % of BMS, at 0.015241579 ug/mL [3]: -0.59%
IL-2, % of BMS, at 0.045724737 ug/mL [3]: 8.03%
IL-2, % of BMS, at 0.137174211 ug/mL [3]: 2.39%
IL-2, % of BMS, at 0.411522634 ug/mL [3]: 9.2%
IL-2, % of BMS, at 1.234567901 ug/mL [3]: 25.1%
IL-2, % of BMS, at 3.703703704 ug/mL [3]: 30.6%
IL-2, % of BMS, at 11.11111111 ug/mL [3]: 34.1%
IL-2, % of BMS, at 33.33333333 ug/mL [3]: 39.8%
IL-2, % of BMS, at 100 ug/mL [3]: 53.7%
B3: sdAb No. 25 (VHH)
VHH: QLQLVESGGGLVQAGGSLRLSCAASGSIESFSFMGWYRQAPGKQRELVAGFTGAASLSFSTYTDAVKGRFTISRDNAKNTVYLQMNSLKPEDTAVYFCNVDPWSQSWPGRYWGQGTQVTVSS
notes: Fc of the tested form not described; also called sdAb 25; sdAb #25; not shown: Fc part implied by anti-human Fc capture and anti-human IgG Fc detection
